In publication PMC4974627 (Biochemistry, 2016):

Biological target: the molecule itself
Test: native MS

B1: Arabidopsis thaliana S-nitrosoglutathione reductase (AtGSNOR), CysSH-treated control (unmodified) (enzyme)
chain: ATQGQVITCKAAVAYEPNKPLVIEDVQVAPPQAGEVRIKILYTALCHTDAYTWSGKDPEGLFPCILGHEAAGIVESVGEGVTEVQAGDHVIPCYQAECRECKFCKSGKTNLCGKVRSATGVGIMMNDRKSRFSVNGKPIYHFMGTSTFSQYTVVHDVSVAKIDPTAPLDKVCLLGCGVPTGLGAVWNTAKVEPGSNVAIFGLGTVGLAVAEGAKTAGASRIIGIDIDSKKYETAKKFGVNEFVNPKDHDKPIQEVIVDLTDGGVDYSFECIGNVSVMRAALECCHKGWGTSVIVGVAASGQEISTRPFQLVTGRVWKGTAFGGFKSRTQVPWLVEKYMNKEIKVDEYITHNLTLGEINKAFDLLHEGTCLRCVLDTSK
  stoichiometry N: 2
